# Laboratory results: patent US8486893B2, “Treatment of conditions involving demyelination” (Biogen Idec MA Inc., priority 2004, dated 2013)
# Positions of bridges follow the written chain, without caps; N, C: chain ends. No end group written: not given here. *: point of attachment. Biotin = O=C1N[C@H]2[C@H](CS[C@H]2CCCCC(=O)*)N1
# B1: FL-Sp35: mouse full length Sp35, amino acid residues 34-614 of SEQ ID NO:2, expressed from lentiviral vector (protein, listed as Homo sapiens)
# chain: TGCPPRCECSAQDRAVLCHRKRFVAVPEGIPTETRLLDLGKNRIKTLNQDEFASFPHLEELELNENIVSAVEPGAFNNLFNLRTLGLRSNRLKLIPLGVFTGLSNLTKLDISENKIVILLDYMFQDLYNLKSLEVGDNDLVYISHRAFSGLNSLEQLTLEKCNLTSIPTEALSHLHGLIVLRLRHLNINAIRDYSFKRLYRLKVLEISHWPYLDTMTPNCLYGLNLTSLSITHCNLTAVPYLAVRHLVYLRFLNLSYNPISTIEGSMLHELLRLQEIQLVGGQLAVVEPYAFRGLNYLRVLNVSGNQLTTLEESVFHSVGNLETLILDSNPLACDCRLLWVFRRRWRLNFNRQQPTCATPEFVQGKEFKDFPDVLLPNYFTCRRARIRDRKAQQVFVDEGHTVQFVCRADGDPPPAILWLSPRKHLVSAKSNGRLTVFPDGTLEVRYAQVQDNGTYLCIAANAGGNDSMPAHLHVRSYSPDWPHQPNKTFAFISNQPGEGEANSTRATVPFPFDIKTLIIATTMGFISFLGVVLFCLVLLFLWSRGKGNTKHNIEIEYVPRKSDAGISSADAPRKFNMKMI
# B2: DN-Sp35: dominant negative Sp35, amino acid residues 34-581 of SEQ ID NO:2, expressed from lentiviral vector (protein, listed as Homo sapiens)
# chain: TGCPPRCECSAQDRAVLCHRKRFVAVPEGIPTETRLLDLGKNRIKTLNQDEFASFPHLEELELNENIVSAVEPGAFNNLFNLRTLGLRSNRLKLIPLGVFTGLSNLTKLDISENKIVILLDYMFQDLYNLKSLEVGDNDLVYISHRAFSGLNSLEQLTLEKCNLTSIPTEALSHLHGLIVLRLRHLNINAIRDYSFKRLYRLKVLEISHWPYLDTMTPNCLYGLNLTSLSITHCNLTAVPYLAVRHLVYLRFLNLSYNPISTIEGSMLHELLRLQEIQLVGGQLAVVEPYAFRGLNYLRVLNVSGNQLTTLEESVFHSVGNLETLILDSNPLACDCRLLWVFRRRWRLNFNRQQPTCATPEFVQGKEFKDFPDVLLPNYFTCRRARIRDRKAQQVFVDEGHTVQFVCRADGDPPPAILWLSPRKHLVSAKSNGRLTVFPDGTLEVRYAQVQDNGTYLCIAANAGGNDSMPAHLHVRSYSPDWPHQPNKTFAFISNQPGEGEANSTRATVPFPFDIKTLIIATTMGFISFLGVVLFCLVLLFLWSRGKG
# B3: Sp35-Ig-Fc: Sp35 amino acids 417-493 fused to Fc (protein)
# chain: RARIRDRKAQQVFVDEGHTVQFVCRADGDPPPAILWLSPRKHLVSAKSNGRLTVFPDGTLEVRYAQVQDNGTYLCIA
# modifications: left off: a dimerising Fc or GST
# notes: Sp35 amino acids 417-493 fused to Fc
# How the values were obtained:
# Format in all cases: cell-based, rat
# [1] = system: co-cultures of dorsal root ganglion (DRG) neurons and oligodendrocytes; assay: In vitro myelination in co-cultures of DRG neurons and oligodendrocytes; conditions: for expression of MBP by western blot: 4-week-old treated cocultures, 10 μg/ml for Fc fusions; for number of myelinating MBP+ cells compared with controls: cocultures infected with lentivirus for two weeks, FIG. 10E; for MBP in cultures by western blot: cocultures infected with lentivirus, FIG. 10F
# Experimental: The role of Sp35 in myelination was examined in vitro by treating co-cultures of dorsal root ganglion (DRG) neurons and oligodendrocytes with Sp35-Fc and testing for myelination by immunohistochemistry and electron microscopy. For these studies, it was necessary to first generate primary cultures of DRG neurons and of oligodendrocytes.
# Female Long Evans rat E14-E17 embryonic dorsal root ganglia were cultured as described by Plant et al., J. Neurosci. 22:6083-91 (2002). Dissected DRGs were plated on poly-L-lysine-coated cover slips (100 μg/ml) for 2 weeks in the presence of fluorodeoxyuridine for days 2-6 and days 8-11 in NLA medium containing 1× B27, 100 ng/ml NGF (Invitrogen).
# A2B5^+ oligodendrocytes were prepared as described in Example 1, and were harvested by trypsinization.
# For coculture studies, A2B5^+ oligodendrocytes were added to DRG neuron drop cultures in the presence or absence of 10 μg/ml Sp35-Fc. The culture medium (Neurobasal medium supplemented with B27 and 100 ng/ml NGF) was changed, and fresh Sp35-Fc was added to the cells every 3 d. To identify changes in myelination, 2-week-old cultures were stained by immunohistochemical staining (“IHC”) for neurofilaments with anti-βIII-tubulin antibody to identify axons, or anti-MBP antibody to identify oligodendrocytes., and 4-week-old cultures were subjected to SDS-PAGE followed by western blot analyses to quantify the MBP. In selected examples, cells were fixed for electron microscopy studies by adding 2.5% gluteraldehyde directly onto the cover slips. Myelinated axons in the 2-week-old cultures were quantified by counting the number of myelinated internode bundles that were derived from single MBP^+ oligodendrocytes. Samples were analyzed in duplicate. Error bars denote individual determinations. P values in all studies were determined using a one-way analysis of variance.
# Several peptides containing portions of the Ig domain of Sp35 were examined in vitro, by treating co-cultures of dorsal root ganglion (DRG) neurons and oligodendrocytes with Sp35 Ig peptides and testing for myelination as described in Example 5.
# For co-culture studies, A2B5^+ oligodendrocytes were added to DRG neuron drop cultures in the presence or absence of 10 μg/ml Sp35-Ig-Fc (Sp35 amino acids 417-493 fused to Fc). The culture medium (Neurobasal medium supplemented with B27 and 100 ng/ml NGF) was changed, and fresh Sp35-Ig-Fc was added to the cells every 3 d. To identify changes in myelination, 2-week-old cultures were stained by immunohistochemical staining (“IHC”) for neurofilaments with anti-βIII-tubulin antibody to identify axons, or anti-MBP antibody to identify oligodendrocytes and 4-week-old cultures were subjected to SDS-PAGE followed by western blot analyses to quantify the MBP.
# We performed experiments to address the relative contributions to the myelination process of Sp35 in DRG neurons as compared to oligodendrocytes. We infected DRG neurons, oligodendrocytes and co-cultures (prepared as described in Example 5) with the FL-Sp35 and DN-Sp35 lentiviral vectors described in Example 1 and performed immunohistochemical straining for myelinated MBP cells after two weeks. A 2-fold increase in MBP levels in co-cultures where both cells express DN-Sp35 and a 2-fold decrease in MBP levels in co-cultures where both cells express FL-Sp35 was observed (FIG. 10G).
# [2] = system: Fyn kinase; assay: Fyn expression and phosphorylation in oligodendrocytes by western blotting; conditions: lentivirus-infected oligodendrocytes, FIG. 9B
# Experimental: The activity of RhoA GTPase is regulated by Fyn kinase See Liang, X, et al., J. Neurosci. 24:7140-7149 (2004). Increased Fyn expression and phosphorylation correlate with oligodendrocyte differentiation. Id. See also Osterhout, D. J., et al., J. Cell Biol. 145:1209-1218 (1999). To test if Sp35 antagonists affect Fyn function, Fyn expression and phosphorylation were measured directly by western blotting.
# [3] = system: Oligodendrocytes; assay: Oligodendrocyte differentiation after infection with FL-Sp35 or DN-Sp35 lentivirus; conditions: lentivirus at 2 MOI per cell
# Experimental: Enriched populations of oligodendrocytes were grown from female Long Evans P2 rats as described by Conn, Meth. Neurosci. 2:1-4 (Academic Press; 1990) with modifications as follows. Briefly, the forebrain was dissected and placed in Hank's buffered salt solution (HBSS; Invitrogen). The tissue was cut into 1-mm fragments and was incubated at 37° C. for 15 min in 0.01% trypsin and 10 μg/ml DNase. Dissociated cells were plated on poly-L-lysine-coated T75 tissue culture flasks and were grown at 37° C. for 10 d in DMEM medium with 20% fetal calf serum (Invitrogen). Oligodendrocyte precursors (A2B5+) were collected by shaking the flask overnight at 200 rpm at 37° C., resulting in a 95% pure population. Cultures were maintained in high-glucose Dulbecco's modified Eagle's medium (DMEM) with FGF/PDGF (10 ng/ml; Peprotech) for 1 week. Removal of FGF/PDGF allowed A2B5^+ cells to differentiate into O4^+ premyelinating oligodendrocytes after 3-7 d, and to differentiate into O4^+ and MBP^+ mature oligodendrocytes after 7-10 d. These differentiation states are readily apparent from changes in morphology: A2B5^+ cells are bipolar in shape, O4^+ premyelinating oligodendrocytes have longer and more branched processes and MBP^+ mature oligodendrocytes contain myelin sheet structures between processes.
# We constructed lentiviral vectors that express wild-type and a dominant-negative form of Sp35. […]
# [4] = co-cultures where both cell types express the construct, two weeks, FIG. 10G
molecule,measurement,setting,value
"Ac-CLSPEKVC (SEQ ID NO:67) (disulfide 1-8 (inferred); listed as Homo sapiens) [cyclic control peptide, reference compound]",expression of MBP by western blot,[1],no increase in MBP
"Ac-CLSPRKHC (SEQ ID NO:66) (Ac-CLSPRKHC-NH2; disulfide 1-8 (inferred); listed as Homo sapiens) [cyclized LSPRKH peptide with terminal cysteines, acetyl at N-terminus and NH2 at C-terminus]",expression of MBP by western blot,[1],increased expression of MBP
Biotin-GSGCKHSPLRC (SEQ ID NO:64; cysteine pairing not given here) [reference compound],expression of MBP by western blot,[1],no increase in MBP
Biotin-GSGCLSPEKVC (SEQ ID NO:65; cysteine pairing not given here) [reference compound],expression of MBP by western blot,[1],no increase in MBP
Biotin-GSGCLSPRKHC (SEQ ID NO:63; cysteine pairing not given here),expression of MBP by western blot,[1],increased expression of MBP
B1,Fyn phosphorylation,[2],reduced by twofold
same,Fyn protein expression,[2],reduced by twofold
same,number of mature oligodendrocytes compared with the control,[3],reduction in the number of mature oligodendrocytes
same,decrease in MBP levels,[1]; [4],2 fold
same,number of myelinating MBP+ cells compared with controls,[1],decreased the number of myelinating MBP^+ cells twofold
same,MBP in cultures by western blot,[1],twofold reduction
same,basal levels of myelination in comparison to control (empty vector),[1]; overexpression in either or both cell types,significantly descreased
B2,Fyn phosphorylation,[2],twofold increases
same,Fyn protein expression,[2],twofold increases
same,number of mature oligodendrocytes compared with the control,[3],increase in the number of mature oligodendrocytes
same,increase in MBP levels,[1]; [4],2 fold
same,number of myelinating MBP+ cells compared with controls,[1],increased the total number of myelinating MBP^+ cells five- to tenfold
same,MBP in cultures by western blot,[1],tenfold increase
B3,expression of MBP by western blot,[1],increased
same,increase in MBP protein compared with Sp35-Fc,"[1]; western blot, FIG. 15",comparable
